How the values were obtained:
[1] = substrate: O=C(O)Cc1cc(O)ccc1O; test: cells, lysate or membranes; conditions: Mg2+ ([…] magnesium chloride in assay)
[2] = substrate: CC(C)=CCC/C(C)=C/CC/C(C)=C/CO[P@@](=O)(O)OP(=O)(O)O; test: cells, lysate or membranes; conditions: Mg2+ ([…] magnesium chloride in assay)

B1: homogentisate solanesyltransferase (CrHST) (Chlamydomonas reinhardtii) (protein)
chain: SAAVPAPLPNGGNDESFAQKLANFPNAFWKFLRPHTIRGTILGTTAVTAKVLMENPGCIDWALLPKALLGLVALLCGNGYIVGINQIYDVDIDVVNKPFLPVASGELSPALAWGLCLSLAAAGAGIVAANFGNLITSLYTFGLFLGTVYSVPPLRLKQYAVPAFMIIATVRGFLLNFGVYSATRAALGLPFEWSPAVSFITVFVTLFATVIAITKDLPDVEGDQANNISTFATRMGVRNVALLAIGLLMANYLGAIALALTYSTAFNVPLMAGAHAILAATLALRTLKLHAASYSREAVASFYRWIWNLFYAEYALLPFL
Km [1]: 48.54 ± 3.89 µM
Km [2]: 22.76 ± 1.70 µM

From PMC10920428, “Expression, purification, and characterization of transmembrane protein homogentisate solanesyltransferase” (Applied Microbiology and Biotechnology, 2024)
